{"source": "patent US20160084839A1", "about": "(Merck Sharp & Dohme, published 2016)", "biological_target": "T1, human programmed death ligand 1 (PD-L1) (human, UniProt Q9NZQ7 19-290)", "T1 construct": "Endogenous PD-L1 on tumor, stromal and inflammatory cells in formalin-fixed, paraffin-embedded tumor tissue sections; 22C3 is described as an anti-human PD-L1 antibody; also called mature PD-L1; hPD-L1", "T1 sequence (Q9NZQ7 19-290)": "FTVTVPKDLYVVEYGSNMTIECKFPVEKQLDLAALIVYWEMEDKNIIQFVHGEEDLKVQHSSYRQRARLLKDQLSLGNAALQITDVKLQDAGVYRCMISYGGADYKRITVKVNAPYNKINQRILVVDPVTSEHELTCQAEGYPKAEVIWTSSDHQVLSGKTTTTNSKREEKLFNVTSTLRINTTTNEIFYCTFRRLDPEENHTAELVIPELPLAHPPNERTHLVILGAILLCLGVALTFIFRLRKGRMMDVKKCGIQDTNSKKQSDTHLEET", "test": "IHC on FFPE NSCLC tissue section", "data": [{"binder": "monoclonal antibody 22C3 (antibody, V domains shown, Whole hybridoma antibody used as primary antibody in IHC; also called MEB037.22C3; PD-L1 22C3 antibody) VH: QVHLQQSGAELAKPGASVKMSCKASGYTFTSYWIHWIKQRPGQGLEWIGYINPSSGYHEYNQKFIDKATLTADRSSSTAYMHLTSLTSEDSAVYYCARSGWLIHGDYYFDFWGQGTTLTVSS VL: DIVMSQSPSSLAVSAGEKVTMTCKSSQSLLHTSTRKNYLAWYQQKPGQSPKLLIYWASTRESGVPDRFTGSGSGTDFTLTISSVQAEDLAVYYCKQSYDVVTFGAGTKLELK", "values": [{"measurement": "binding result", "value": "binds"}]}]}
